Results taken from patent US20070286806A1, “Methods and Compositions for Modulating a Steroid Receptor” (Mount Sinai Hospital, priority 2004, published 2007).

Experiments:
Assay in all cases: One-hybrid system: PR activation domains fused to Gal4 DBD, G5-Luc reporter and western blot in SHM cells
Format in all cases: cell-based
activation domains of PR [1] = target: T1, activation domains of PR (Homo sapiens, UniProt P06401); conditions: PR650-933 (only the AF2 domain)
T1 construct: expressed in transfected cells; host or cells: SHM (Syrian hamster myocyte) cells
T1 sequence (P06401 650-933): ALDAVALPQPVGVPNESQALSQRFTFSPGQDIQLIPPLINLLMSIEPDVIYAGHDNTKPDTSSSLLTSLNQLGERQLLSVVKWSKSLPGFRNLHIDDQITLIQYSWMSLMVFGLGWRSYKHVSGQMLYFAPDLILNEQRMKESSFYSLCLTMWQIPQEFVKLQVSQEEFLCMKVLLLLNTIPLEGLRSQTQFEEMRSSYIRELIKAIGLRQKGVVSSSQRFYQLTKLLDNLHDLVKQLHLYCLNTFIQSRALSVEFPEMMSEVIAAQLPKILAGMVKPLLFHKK
Description: (§1) FIG. 6 A-F. Inhibition of PR activation domains by PSF involves different mechanisms. Segments containing individual activation domains of PR were fused to Gal4 DNA binding domain in pM vector and cotransfected with or without increasing amounts of His-PSF, together with G5 luciferase reporter vector in SHM cells. Progesterone (10 nM) was added to cells transfected with segments containing PR hormone binding domain (HBD). Luciferase activity was measured 30 hours after transfection and normalized to β-galatosidase acitvity. Data shown are the mean of three separate experiments performed in triplicate±S.E. Whole cell lysate from each transfection was western blotted with anti-Gal4 DNA binding domain (DBD) antibody (Santa Cruz) and anti-His tag antibody H-15 (Santa Cruz). Note: the empty vector pSG5 was added to the DNA mixture to ensure that the amounts of SV40 promoter in all the transfection assays are equal.
(§2) For immunoprecipitation of the endogenous PR and PSF, T47D cells cultured in 150 mm dishes were lysed in 800 μl NETN buffer containing 150 mM NaCl plus protease inhibitor cocktail. Cell lysate were then incubated with 5 μg of PR or PSF, or control mouse IgG at 4° C. overnight, followed by the addition of 30 μl of protein A/G PLUS-agarose beads (Santa Cruz) for another two hours at 4° C. Resins were washed with NETN containing 250 mM NaCl and eluted with 1×Laemmli buffer. The eluted proteins along with the whole cell extract were western blotted by PR or PSF antibody. • GST pulldown assay: GST pulldown assay was performed as previously described (20). GST and its fusion proteins were first immobilized to glutathione-Sepharose 4B affinity matrix. The matrix was then incubated at 4° C. overnight with rabbit reticulocyte lysate (Promega) containing PR or His-PSF transcribed and translated in presence of ^35S methionine. The matrix was washed three times with cold NETN buffer before adding 1 ×Laemmli buffer to elute associated proteins. The eluted proteins were separated on 10% SDS-PAGE gel. Gels were treated with Enhancer (NEN, Boston, US) dried and analyzed by autoradiography. • Cell culture and transient transfection: SHM cells and 293T cells were maintained in DMEM plus 5% FCS (Sigma) as described before (22). For experiments involving steroid exposure, the medium was substituted with phenol red free DMEM containing 5% charcoal-treated fetal bovine serum (Hyclone, Utah, USA). Transfection was performed according to manufacturers protocol (Fementas). Cells were seeded at a density to achieve 60-80% confluency the following day. The DNA and transfection reagent were mixed and added to the medium. Cell lysates were collected at least 30 hours after transfection. For luciferase assay, cells were collected in 200 μl of lysis buffer (Promega) of which 10μl was used for the luciferase and β-Gal activity assays respectively. Luciferase activity was determined by using the luciferin reagent (Promega) according to manufacture's protocol. Transfection efficiency was normalized to β-galactosidase activity. For western blots, cell lysates were collected in NETN buffer plus protease inhibitor cocktail. About 30 μg of protein extract was separated on SDS gel electrophoresis followed by western blotting with antibodies of interest. • Electrophoretic Mobility Shift Assay: PRDBD was synthesized in rabbit reticulocyte by using the TNT coupled in vitro transcription-translation system (Promega) with the vector pcDNA3 PRDBD. Full-length PR protein extract was obtained by transiently transfecting 293T cells with Flag-PRB vector. Cells were treated with 10^−8 M progesterone and nuclear fraction was extracted by the NE-PER Nuclear and Cytoplasmic Extraction Reagents Kit (Pierce). The nuclear fraction containing PRs was confirmed by western blot with the PR antibody AB-52 and used in gel shift assay. […]

activation domains of PR [2] = target: T2, activation domains of PR (Homo sapiens, UniProt P06401)
T2 construct: expressed in transfected cells; host or cells: SHM (Syrian hamster myocyte) cells
T2 sequence (P06401 1-164): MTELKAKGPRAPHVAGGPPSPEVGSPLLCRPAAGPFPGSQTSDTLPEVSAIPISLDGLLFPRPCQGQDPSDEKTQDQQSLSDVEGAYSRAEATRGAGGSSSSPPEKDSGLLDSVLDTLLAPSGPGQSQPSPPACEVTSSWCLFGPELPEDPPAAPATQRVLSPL
Description: as §1, §2

activation domains of PR [3] = target: T3, activation domains of PR (Homo sapiens, UniProt P06401); remark: listed apart in the source
T3 construct: expressed in transfected cells; host or cells: SHM (Syrian hamster myocyte) cells
T3 sequence (P06401 556-933): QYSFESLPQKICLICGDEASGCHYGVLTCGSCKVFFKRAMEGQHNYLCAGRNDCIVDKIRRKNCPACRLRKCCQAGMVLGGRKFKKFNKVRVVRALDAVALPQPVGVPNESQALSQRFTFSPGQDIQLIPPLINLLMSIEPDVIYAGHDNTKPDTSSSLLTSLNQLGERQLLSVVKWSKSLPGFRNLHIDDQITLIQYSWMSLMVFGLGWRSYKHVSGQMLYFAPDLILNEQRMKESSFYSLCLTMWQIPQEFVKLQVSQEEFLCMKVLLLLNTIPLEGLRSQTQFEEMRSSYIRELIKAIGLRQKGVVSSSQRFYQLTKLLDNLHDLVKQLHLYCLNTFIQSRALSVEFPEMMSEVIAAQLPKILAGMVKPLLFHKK
Description: as §1, §2

activation domains of PR [4] = target: T4, activation domains of PR (Homo sapiens, UniProt P06401); conditions: PR456-556 (AF1 domain)
T4 construct: expressed in transfected cells; host or cells: SHM (Syrian hamster myocyte) cells
T4 sequence (P06401 456-556): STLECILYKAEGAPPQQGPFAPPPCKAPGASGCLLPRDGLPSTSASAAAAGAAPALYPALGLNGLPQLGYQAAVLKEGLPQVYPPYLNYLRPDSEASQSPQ
Description: as §1, §2

activation domains of PR [5] = target: T5, activation domains of PR (Homo sapiens, UniProt P06401); remark: listed apart in the source
T5 construct: expressed in transfected cells; host or cells: SHM (Syrian hamster myocyte) cells
T5 sequence (P06401 456-650): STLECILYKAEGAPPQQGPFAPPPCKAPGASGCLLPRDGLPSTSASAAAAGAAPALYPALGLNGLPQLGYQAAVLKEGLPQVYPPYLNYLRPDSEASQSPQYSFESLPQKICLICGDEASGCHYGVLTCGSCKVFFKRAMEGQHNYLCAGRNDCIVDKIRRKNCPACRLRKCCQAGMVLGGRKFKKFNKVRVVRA
Description: as §1, §2

B1: polypyrimidine tract binding protein-associated splicing factor (protein)
chain: MSRDRFRSRGGGGGGFHRRGGGGGRGGLHDFRSPPPGMGLNQNRGPMGPGPGQSGPKPPIPPPPPHQQQQQPPPQQPPPQQPPPHQPPPHPQPHQQQQPPPPPQDSSKPVVAQGPGPAPGVGSAPPASSSAPPATPPTSGAPPGSGPGPTPTPPPAVTSAPPGAPPPTPPSSGVPTTPPQAGGPPPPPAAVPGPGPGPKQGPGPGGPKGGKMPGGPKPGGGPGLSTPGGHPKPPHRGGGEPRGGRQHHPPYHQQHHQGPPPGGPGGRSEEKISDSEGFKANLSLLRRPGEKTYTQRCRLFVGNLPADITEDEFKRLFAKYGEPGEVFINKGKGFGFIKLESRALAEIAKAELDDTPMRGRQLRVRFATHAAALSVRNLSPYVSNELLEEAFSQFGPIERAVVIVDDRGRSTGKGIVEFASKPAARKAFERCSEGVFLLTTTPRPVIVEPLEQLDDEDGLPEKLAQKNPMYQKERETPPRFAQHGTFEYEYSQRWKSLDEMEKQQREQVEKNMKDAKDKLESEMEDAYHEHQANLLRQDLMRRQEELRRMEELHNQEMQKRKEMQLRQEEERRRREEEMMIRQREMEEQMRRQREESYSRMGYMDPRERDMRMGGGGAMNMGDPYGSGGQKFPPLGGGGGIGYEANPGVPPATMSGSMMGSDMRTERFGQGGAGPVGGQGPRGMGPGTPAGYGRGREEYEGPNKKPRF
notes: expressed from transfected His-PSF vector or in vitro translated
Question: What does the source list for B1?
Answer: effect on PR650-933 (activation domains of PR [1]): no effect; luciferase activity of pM PR1-164 (activation domains of PR [2]; PR1-164 (AF3), increasing amounts of PSF): significant dose-dependent reduction in luciferase activity; pM PR1-164 protein (activation domains of PR [2]; PR1-164, western blot): loss of pM PR1-164 protein; transactivation of PR556-933 (activation domains of PR [3]; PR556-933 (DBD and AF2 domain), 10 nM progesterone): did inhibit transactivation; protein level of PR556-933 (activation domains of PR [3]; PR556-933, western blot): without any reduction; effect on PR456-556 (activation domains of PR [4]): no effect; transactivation of PR456-650 (activation domains of PR [5]; PR456-650 (AF1 domain and DBD)): inhibited transactivation; protein of PR456-650 (activation domains of PR [5]; PR456-650, western blot): enhanced degradation
